The values that follow come from publication PMC10786891, “Massively parallel profiling of RNA-targeting CRISPR-Cas13d”.

Residue numbers refer to the chain shown, from its start. Names and notes keep the numbering of the source.

To fix the notation:
B1: target 1 A1G,U10G (mixed)
RNA 1: CACCCGUGCAAAAAUGCAGGGGUCUAAAACUGAGCGGAUAACCUCUCUAUGG
RNA 2: GGGAAUGGAUCCACAUCUACGAAUUCGUACCAUAGAGAGGUGAUCCGCUCGCCGAGAUCGGAAGAGCACACGU
B2: target 1 complement block 5-8 (mixed)
RNA 1: B1 RNA 1
RNA 2: B1 RNA 2 with G42U, U44A, C45G, C46G, G47C, G51A
B3: target 1 insU 3' of 20,insA 3' of 13 (mixed)
RNA 1: B1 RNA 1
RNA 2: GGGAAUGGAUCCACAUCUACGAAUUCGUACCAUUAGAGAGAGUUAUCCGCUCACCGAGAUCGGAAGAGCACACGU
B4: target 1 C4U,A14G (mixed)
RNA 1: B1 RNA 1
RNA 2: B1 RNA 2 with A38G, G42U, C48U, G51A
B5: target 1 insG 3' of 22 (mixed)
RNA 1: B1 RNA 1
RNA 2: GGGAAUGGAUCCACAUCUACGAAUUCGUACGCAUAGAGAGGUUAUCCGCUCACCGAGAUCGGAAGAGCACACGU
B6: target 1 U3C,C6G (mixed)
RNA 1: B1 RNA 1
RNA 2: B1 RNA 2 with G42U, C46G, U49C, G51A
B7: target 1 A9U,A14G (mixed)
RNA 1: B1 RNA 1
RNA 2: B1 RNA 2 with A38G, G42U, A43U, G51A
B8: target 1 C6G,G15A (mixed)
RNA 1: B1 RNA 1
RNA 2: B1 RNA 2 with G37A, G42U, C46G, G51A
B9: target 1 U10A,A18U (mixed)
RNA 1: B1 RNA 1
RNA 2: B1 RNA 2 with A34U, G42A, G51A
B10: target 1 insC 3' of 11,insG 3' of 3 (mixed)
RNA 1: B1 RNA 1
RNA 2: GGGAAUGGAUCCACAUCUACGAAUUCGUACCAUAGAGAGGUCUAUCCGCUGCACCGAGAUCGGAAGAGCACACGU
B11: target 1 insU 3' of 15,insU 3' of 5 (mixed)
RNA 1: B1 RNA 1
RNA 2: B10 RNA 2 with A38U, G39A, U41G, C42U, C49U, U50C, G51U
B12: target 1 insC 3' of 22,insA 3' of 7 (mixed)
RNA 1: B1 RNA 1
RNA 2: B3 RNA 2 with A32C, U33A, A41G, G42U, U44A, A45U, U46C, C47A
B13: target 1 C4G,G17U (mixed)
RNA 1: B1 RNA 1
RNA 2: B1 RNA 2 with G35U, G42U, C48G, G51A
B14: target 1 U10A,G15U (mixed)
RNA 1: B1 RNA 1
RNA 2: B1 RNA 2 with G37U, G42A, G51A
B15: target 1 U3A,G17U (mixed)
RNA 1: B1 RNA 1
RNA 2: B1 RNA 2 with G35U, G42U, U49A, G51A
B16: target 1 insC 3' of 20,insA 3' of 13 (mixed)
RNA 1: B1 RNA 1
RNA 2: B3 RNA 2 with U33C
B17: target 1 del18 (mixed)
RNA 1: B1 RNA 1
RNA 2: GGGAAUGGAUCCACAUCUACGAAUUCGUACCAUGAGAGGUUAUCCGCUCACCGAGAUCGGAAGAGCACACGU
B18: target 1 insA 3' of 22,insU 3' of 15 (mixed)
RNA 1: B1 RNA 1
RNA 2: B3 RNA 2 with C31A, A32C, U33A, A39U, G40A, A41G
B19: target 1 insA 3' of 11,insC 3' of 3 (mixed)
RNA 1: B1 RNA 1
RNA 2: B10 RNA 2 with C42A, G51C
B20: target 1 insU 3' of 17,insC 3' of 8 (mixed)
RNA 1: B1 RNA 1
RNA 2: B3 RNA 2 with U34A, A35G, G36U, A41G, G42U, U44A, A45U, U46C
B21: target 1 G12A,G17U (mixed)
RNA 1: B1 RNA 1
RNA 2: B1 RNA 2 with G35U, G40A, G42U, G51A
B22: target 1 insA 3' of 21,insA 3' of 6 (mixed)
RNA 1: B1 RNA 1
RNA 2: B3 RNA 2 with U33A, A41G, G42U, U44A, A45U, U46C, C48A
B23: target 1 insA 3' of 17,insG 3' of 2 (mixed)
RNA 1: B1 RNA 1
RNA 2: B10 RNA 2 with G37A, A38G, G39A, U41G, C42U, G51C, C52G
B24: target 1 insC 3' of 20,insG 3' of 3 (mixed)
RNA 1: B1 RNA 1
RNA 2: B10 RNA 2 with U33C, A34U, G35A, A36G, G37A, A38G, G39A, U41G, C42U
B25: target 1 insC 3' of 20,insG 3' of 14 (mixed)
RNA 1: B1 RNA 1
RNA 2: B3 RNA 2 with U33C, A41G
B26: target 1 insU 3' of 15,insC 3' of 5 (mixed)
RNA 1: B1 RNA 1
RNA 2: B10 RNA 2 with A38U, G39A, U41G, C42U, U50C, G51U
B27: target 1 insU 3' of 12,insU 3' of 4 (mixed)
RNA 1: B1 RNA 1
RNA 2: B10 RNA 2 with C42U, G51U
B28: target 1 U8A,C21A (mixed)
RNA 1: B1 RNA 1
RNA 2: B1 RNA 2 with C31A, G42U, U44A, G51A
B29: target 1 insC 3' of 20,insA 3' of 12 (mixed)
RNA 1: B1 RNA 1
RNA 2: B3 RNA 2 with U33C, A41G, G42A
B30: target 1 U11C,A14G (mixed)
RNA 1: B1 RNA 1
RNA 2: B1 RNA 2 with A38G, U41C, G42U, G51A
B31: target 1 A14G,A16G (mixed)
RNA 1: B1 RNA 1
RNA 2: B1 RNA 2 with A36G, A38G, G42U, G51A
B32: target 1 U3A,C22A (mixed)
RNA 1: B1 RNA 1
RNA 2: B1 RNA 2 with C30A, G42U, U49A, G51A

For the series, the target named is T1, EsCas13d, nuclease-dead (Eubacterium siraeum, UniProt B0MS50, R295A;H300A;R849A;H854A).
T1 sequence: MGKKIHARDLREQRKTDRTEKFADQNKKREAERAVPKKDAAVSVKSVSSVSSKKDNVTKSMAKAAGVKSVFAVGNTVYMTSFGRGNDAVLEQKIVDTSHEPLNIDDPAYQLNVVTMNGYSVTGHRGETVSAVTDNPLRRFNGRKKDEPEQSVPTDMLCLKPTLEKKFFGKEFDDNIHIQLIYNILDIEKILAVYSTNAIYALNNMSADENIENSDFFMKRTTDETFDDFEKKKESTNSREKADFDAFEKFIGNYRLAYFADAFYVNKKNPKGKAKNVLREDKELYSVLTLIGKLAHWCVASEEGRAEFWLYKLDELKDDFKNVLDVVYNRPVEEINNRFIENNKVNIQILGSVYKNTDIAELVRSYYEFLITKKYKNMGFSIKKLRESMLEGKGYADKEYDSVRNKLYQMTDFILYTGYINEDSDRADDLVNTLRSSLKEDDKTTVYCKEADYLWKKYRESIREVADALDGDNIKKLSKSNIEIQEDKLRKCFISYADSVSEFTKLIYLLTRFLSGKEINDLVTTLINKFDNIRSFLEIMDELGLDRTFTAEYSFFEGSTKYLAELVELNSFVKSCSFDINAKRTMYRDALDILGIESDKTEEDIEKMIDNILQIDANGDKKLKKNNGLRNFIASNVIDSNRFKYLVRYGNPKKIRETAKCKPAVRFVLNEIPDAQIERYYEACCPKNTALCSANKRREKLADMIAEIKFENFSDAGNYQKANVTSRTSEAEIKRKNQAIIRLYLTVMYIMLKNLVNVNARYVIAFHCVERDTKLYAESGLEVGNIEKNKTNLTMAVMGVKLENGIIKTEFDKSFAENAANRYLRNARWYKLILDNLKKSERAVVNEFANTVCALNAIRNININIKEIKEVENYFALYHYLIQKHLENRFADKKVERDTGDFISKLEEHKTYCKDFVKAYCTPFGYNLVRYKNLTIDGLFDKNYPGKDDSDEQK
The series is described as follows: crRNA (strand 1, pre-loaded); Mg2+; 40 mM Tris-HCl pH 7.5, 150 mM NaCl, 6 mM MgCl2, 1 mM DTT, 0.1% Tween-20, 0.2 mg/ml BSA; 25 C; 10 min per concentration, then washed. The note with it: tags: His6-TwinStrep-SUMO cleaved; N-terminal SNAP kept (SNAP-Surface 488); label: 3' end held by stalled T7 RNA polymerase.
As usually defined, the Kd is the free concentration of one partner at which half of the binding sites on the other are occupied at equilibrium, for simple one-to-one binding. High values mean a looser complex, low ones a tighter complex. B1: binding was put at a Kd of 21.1 ± 1.1 nM.
In turn, B2 displayed a dissociation constant Kd of 14.7 ± 0.8 nM.
In the case of B3, the Kd is 8.4 ± 1.2 nM.
Regarding B4, the dissociation constant (Kd) was around 60 nM.
The molecule B5 gave a Kd of 31 ± 2.8 nM.
Molecule B6 had a Kd of 12.1 ± 0.7 nM.
As for B7, the Kd is 17.7 ± 1.2 nM.
As for B8, the affinity, expressed as Kd, was 14.4 ± 0.8 nM.
For B9, the Kd was determined as 43 ± 4 nM.
With B10, the Kd amounted to 24.9 ± 1.4 nM.
Regarding B11, binding was put at a Kd of 35 ± 5 nM.
The figure for B12 is 17.6 ± 2.5 nM; for B13 it is 39 ± 12 nM.
Regarding B14, the affinity, expressed as Kd, was 56 ± 13 nM.
Molecule B15 had a Kd of 25 ± 4 nM.
Consider B16, for which the Kd is 4.7 ± 0.4 nM.
B17 had a Kd of 42 ± 8 nM.
Take B18: binding was characterised by a dissociation constant (Kd) of 19 ± 1.8 nM.
B19 returned an equilibrium dissociation constant (Kd) of 13.8 ± 0.6 nM.
B20: the affinity, expressed as Kd, was 44 ± 8 nM.
The figure for B21 is 18.9 ± 1.4 nM; for B22 it is 22.1 ± 2.3 nM.
Next, B23: 17.3 ± 2.5 nM; B24: 8.3 ± 0.5 nM; B25: 10.1 ± 0.8 nM.
On to B26, for which the Kd stood at 16.9 ± 2.2 nM.
B27 showed a dissociation constant Kd of 5.68 ± 0.27 nM.
B28 returned a Kd of 55 ± 9 nM.
The molecule B29 gave a Kd of 9 ± 0.5 nM.
Regarding B30, the dissociation constant Kd was determined as 13.4 ± 0.6 nM.
The figure for B31 is 34.8 ± 2.2 nM; for B32 it is 60 ± 17 nM.
